Measured values published in patent US20240336907A1, “NOVEL ENDO-ß-N-ACETYLGLUCOSAMINIDASE” (priority 2020, published 2024).

System: (Fucα1,6)GlcNAc-mAb2
Assay: One-pot method: Endo-Rp mutant enzymes (enzyme A) combined with Endo-Si D241Q, SGP donor
Assay type: biochemical
Details: Endo-Rp mutant enzyme 8 μg with Endo-Si D241Q 5 μg, SGP (50 eq.), 28° C., pH 7.5
Method: Using Endo-Rp, which is known to transfer a sugar chain from a sugar chain donor, SGP, to a GlcNAc derivative, as a representative of enzyme A, the property of enzyme A that can be used in combination with Endo-Si was investigated.
The transglycosylation activity on an antibody by the one-pot method was evaluated as follows. A 50 mM (sodium) phosphorate buffer (pH 7.5) solution (17 μL) containing (Fucα1,6)GlcNAc-mAb2 (0.5 mg), SGP (0.485 mg (50 eq.)), Endo-M N175Q (manufactured by Tokyo Kasei Kogyo Co., Ltd.) (2.5 mU) or each of various Endo-Rp mutant enzymes (8 μg) and Endo-Si D241Q (5 μg) was prepared and incubated at 28° C. A sample was taken from each of the reaction solutions at 2, 4, 6, 24, and 48 hours after initiation of the reaction and analyzed for protein by a fully automated electrophoresis system as mentioned above. In the chromatogram obtained, the transglycosylation rate was calculated in accordance with the formula for computation described in Example 5.

Molecule	Change in transglycosylation rate (%) with time (2 h) [%]	Change in transglycosylation rate (%) with time (4 h) [%]	Change in transglycosylation rate (%) with time (6 h) [%]	Change in transglycosylation rate (%) with time (24 h) [%]	Change in transglycosylation rate (%) with time (48 h) [%]
Endo-Rp W278F/N172D/F307Y (protein) MPSLQLQPDDKLAPVSFALKSMNELRDWTPDEKIKFNVSSVALQPRVKNALKPQLLLTHDMAGGYKEDKNIQGNNYKDIYNIQYWHLADTFVYFSHERVSIPPVNWTNACHRNGVKCLGTFLVEGNNQMHEMEALLHGPPLLNNTDDPMRLWSPYYADQLVAIAKHYGFDGWLFDIECEFFPFPTNPKFKAEELAKFLHYFKEKLHNEIPGSQLIWYDSMTNEGEIHWQNQLTWKNELFFKNTDGIFLNYWWKKEYPEMARRVAEGIGRSGLEVYFGTDVFGRHTYGGGGFKSYKGVKTAYSAMTSSALYGMAWTYEHFEKSEFEKMDRLFWCGGKYSDYPPPPPKNPDDEKEVESDDSEDELMYGHKKGIADTVESIPVPGTDWFVTNFDRGFGNRFYYRGKRLLSQPWSHLSHQAILPNKSYRNPEIYPTDQNIKITSSLDCDHGAFLGGTSLIIKGQRFNHRESHDVETEISIPLYKLSLDASKGCSLRYIYRTLLMKDVKLTVACHFSLKTNDSVNFFKVWQPDENFSFEYDDGMRATVTTENSTESRCFLLRTTEEDTGENDWITKTINVPAVPEGSQLYITRLEVSVVLDTAGLVGLVNQVIACLGYISIIPTINSGIKTDSSRIIQDLFWKDQKYTKIGKESLDDIAQEEVHRYYGTLNWENTANVVNAWEEIDYYNVFYKESDDSATRIFLGTAFCNQFRVSGLDIILSKLPKIVIEAVNKEGYISSSGSIDLSLN	12.0	19.0	24.9	76.5	93.1
Endo-Rp W278F/N172D/F307H (protein) MPSLQLQPDDKLAPVSFALKSMNELRDWTPDEKIKFNVSSVALQPRVKNALKPQLLLTHDMAGGYKEDKNIQGNNYKDIYNIQYWHLADTFVYFSHERVSIPPVNWTNACHRNGVKCLGTFLVEGNNQMHEMEALLHGPPLLNNTDDPMRLWSPYYADQLVAIAKHYGFDGWLFDIECEFFPFPTNPKFKAEELAKFLHYFKEKLHNEIPGSQLIWYDSMTNEGEIHWQNQLTWKNELFFKNTDGIFLNYWWKKEYPEMARRVAEGIGRSGLEVYFGTDVFGRHTYGGGGFKSYKGVKTAYSAMTSSALHGMAWTYEHFEKSEFEKMDRLFWCGGKYSDYPPPPPKNPDDEKEVESDDSEDELMYGHKKGIADTVESIPVPGTDWFVTNFDRGFGNRFYYRGKRLLSQPWSHLSHQAILPNKSYRNPEIYPTDQNIKITSSLDCDHGAFLGGTSLIIKGQRFNHRESHDVETEISIPLYKLSLDASKGCSLRYIYRTLLMKDVKLTVACHFSLKTNDSVNFFKVWQPDENFSFEYDDGMRATVTTENSTESRCFLLRTTEEDTGENDWITKTINVPAVPEGSQLYITRLEVSVVLDTAGLVGLVNQVIACLGYISIIPTINSGIKTDSSRIIQDLFWKDQKYTKIGKESLDDIAQEEVHRYYGTLNWENTANVVNAWEEIDYYNVFYKESDDSATRIFLGTAFCNQFRVSGLDIILSKLPKIVIEAVNKEGYISSSGSIDLSLN	8.8	13.4	17.7	66.1	91.1
